The target in series [1] is T1, RIG-I CTD WT (crystal) (human, UniProt O95786 802-925).
T1 sequence: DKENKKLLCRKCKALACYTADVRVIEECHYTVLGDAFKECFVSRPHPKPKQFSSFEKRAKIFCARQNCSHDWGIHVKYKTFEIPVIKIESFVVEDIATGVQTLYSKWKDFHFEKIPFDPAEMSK
Nature of the series: X-ray crystallography.

Series [2] deals with T2, RIG-I CTD I875A (crystal) (human, UniProt O95786 802-925, I875A).
T2 sequence: T1 sequence with I74A
The series can be described thus: X-ray crystallography.

Changes are numbered by the printed parent chain.

B1: OH-dsRNA (crystallization) (dsRNA)
RNA 1: GACGCUAGCGUC
RNA 2: GACGCUAGCGUC
For the molecule B1, the binding result in series [1] is “binds”.

B2: p-dsRNA (crystallization) (dsRNA)
RNA 1: GACGCUAGCGUC
RNA 2: GACGCUAGCGUC
modifications: 5'-monophosphate
On to B2, for which the binding result in series [2] is “binds”.
